Measurements from patent publication US20260049138A1 (Chugai, published 2026).

B1: GLS3000 N30M one-arm antibody (antibody, human IgG1, kappa, L234A L235A, N297A, name in Kabat numbering)
heavy: QVQLVESGGGVVQPGRSLRLSCAASGFTFSNAWMHWVRQAPGKGLEWVAQIKAKSNNYATYYAESVKGRFTISRDDSKNSLYLQMNSLKTEDTAVYYCRYVHYGAYYGVDAWGQGTTVTVSSASTKGPSVFPLAPSSKSTSGGTAALGCLVKDYFPEPVTVSWNSGALTSGVHTFPAVLQSSGLYSLSSVVTVPSSSLGTQTYICNVNHKPSNTKVDKKVEPKSCDKTHTCPPCPAPEAAGGPSVFLFPPKPKDTLMISRTPEVTCVVVDVSHEDPEVKFNWYVDGVEVHNAKTKPREEQYASTYRVVSVLTVLHQDWLNGKEYKCKVSNKALPAPIEKTISKAKGQPREPQVYTLPPSRCELTKNQVSLSCAVKGFYPSDIAVEWESNGQPENNYKTTPPVLDSDGSFFLVSKLTVDKSRWQQGNVFSCSVMHEALHNHYTQKSLSLSPDYKDDDDK
chain: EPKSSDKTHTCPPCPAPELLGGPSVFLFPPKPKDTLMISRTPEVTCVVVDVSHEDPEVKFNWYVDGVEVHNAKTKPREEQYNSTYRVVSVLTVLHQDWLNGKEYKCKVSNKALPAPIEKTISKAKGQPREPQVCTLPPSRDELTKNQVSLWCLVKGFYPSDIAVEWESNGQPENNYKTTPPVLDSDGSFFLYSKLTVDKSRWQQGNVFSCSVMHEALHNRYTQKSLSLSP
light: DIVMTQSPLSLPVTPGEPASISCRSSQSLVHSNRMTYLHWYQQKPGQAPRLLIYKVSNRFSGVPDRFSGSGSGTDFTLKISRVEAEDVGVYYCGQGTQVPYTFGQGTKLEIKRTVAAPSVFIFPPSDEQLKSGTASVVCLLNNFYPREAKVQWKVDNALQSGNSQESVTEQDSKDSTYSLSSTLTLSKADYEKHKVYACEVTHQGLSSPVTKSFNRGEC
B2: GLS3000 N30P one-arm antibody (antibody, human IgG1, kappa, L234A L235A, N297A, name in Kabat numbering)
heavy: QVQLVESGGGVVQPGRSLRLSCAASGFTFSNAWMHWVRQAPGKGLEWVAQIKAKSNNYATYYAESVKGRFTISRDDSKNSLYLQMNSLKTEDTAVYYCRYVHYGAYYGVDAWGQGTTVTVSSASTKGPSVFPLAPSSKSTSGGTAALGCLVKDYFPEPVTVSWNSGALTSGVHTFPAVLQSSGLYSLSSVVTVPSSSLGTQTYICNVNHKPSNTKVDKKVEPKSCDKTHTCPPCPAPEAAGGPSVFLFPPKPKDTLMISRTPEVTCVVVDVSHEDPEVKFNWYVDGVEVHNAKTKPREEQYASTYRVVSVLTVLHQDWLNGKEYKCKVSNKALPAPIEKTISKAKGQPREPQVYTLPPSRCELTKNQVSLSCAVKGFYPSDIAVEWESNGQPENNYKTTPPVLDSDGSFFLVSKLTVDKSRWQQGNVFSCSVMHEALHNHYTQKSLSLSPDYKDDDDK
chain: EPKSSDKTHTCPPCPAPELLGGPSVFLFPPKPKDTLMISRTPEVTCVVVDVSHEDPEVKFNWYVDGVEVHNAKTKPREEQYNSTYRVVSVLTVLHQDWLNGKEYKCKVSNKALPAPIEKTISKAKGQPREPQVCTLPPSRDELTKNQVSLWCLVKGFYPSDIAVEWESNGQPENNYKTTPPVLDSDGSFFLYSKLTVDKSRWQQGNVFSCSVMHEALHNRYTQKSLSLSP
light: DIVMTQSPLSLPVTPGEPASISCRSSQSLVHSNRPTYLHWYQQKPGQAPRLLIYKVSNRFSGVPDRFSGSGSGTDFTLKISRVEAEDVGVYYCGQGTQVPYTFGQGTKLEIKRTVAAPSVFIFPPSDEQLKSGTASVVCLLNNFYPREAKVQWKVDNALQSGNSQESVTEQDSKDSTYSLSSTLTLSKADYEKHKVYACEVTHQGLSSPVTKSFNRGEC

Target: T1, CD3ε homodimer protein (human, UniProt P07766 23-126, limits assumed)
T1 construct: also called CD3 (CD3ε)
Assay: SPR Biacore T200, CD3ε homodimer on chip;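 note: Light-chain single-residue variant antibodies injected over amine-coupled CD3ε homodimer on a CM4 chip at 25 °C, bound amount divided by that of the GLS3000-containing antibody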

T1 sequence (P07766 23-126 limits assumed): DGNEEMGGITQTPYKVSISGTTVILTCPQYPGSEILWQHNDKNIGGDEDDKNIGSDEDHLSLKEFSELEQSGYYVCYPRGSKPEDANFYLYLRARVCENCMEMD

Row | Binder | ratio of amount bound vs unaltered GLS3000
1 | B1 | 0.8
2 | B2 | 0.31
